T1: IL-18 receptor on HEK-Blue IL18R reporter cells (UniProt Q13478 19-541; O95256 20-599, limits assumed)
T1 sequence (looked up) 1: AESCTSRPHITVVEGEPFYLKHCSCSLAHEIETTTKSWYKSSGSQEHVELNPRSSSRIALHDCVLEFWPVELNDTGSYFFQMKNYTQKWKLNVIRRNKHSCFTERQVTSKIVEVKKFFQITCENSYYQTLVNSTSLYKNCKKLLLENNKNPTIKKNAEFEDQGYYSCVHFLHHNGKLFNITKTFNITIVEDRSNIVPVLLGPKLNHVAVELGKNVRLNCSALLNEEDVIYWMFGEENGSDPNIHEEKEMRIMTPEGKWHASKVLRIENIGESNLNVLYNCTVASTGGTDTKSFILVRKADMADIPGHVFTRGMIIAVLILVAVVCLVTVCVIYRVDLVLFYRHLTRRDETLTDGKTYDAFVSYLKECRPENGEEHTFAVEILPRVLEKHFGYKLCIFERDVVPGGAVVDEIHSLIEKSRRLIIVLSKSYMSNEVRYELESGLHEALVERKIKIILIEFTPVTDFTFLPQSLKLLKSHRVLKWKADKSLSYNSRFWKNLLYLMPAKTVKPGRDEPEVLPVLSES
T1 sequence (looked up) 2: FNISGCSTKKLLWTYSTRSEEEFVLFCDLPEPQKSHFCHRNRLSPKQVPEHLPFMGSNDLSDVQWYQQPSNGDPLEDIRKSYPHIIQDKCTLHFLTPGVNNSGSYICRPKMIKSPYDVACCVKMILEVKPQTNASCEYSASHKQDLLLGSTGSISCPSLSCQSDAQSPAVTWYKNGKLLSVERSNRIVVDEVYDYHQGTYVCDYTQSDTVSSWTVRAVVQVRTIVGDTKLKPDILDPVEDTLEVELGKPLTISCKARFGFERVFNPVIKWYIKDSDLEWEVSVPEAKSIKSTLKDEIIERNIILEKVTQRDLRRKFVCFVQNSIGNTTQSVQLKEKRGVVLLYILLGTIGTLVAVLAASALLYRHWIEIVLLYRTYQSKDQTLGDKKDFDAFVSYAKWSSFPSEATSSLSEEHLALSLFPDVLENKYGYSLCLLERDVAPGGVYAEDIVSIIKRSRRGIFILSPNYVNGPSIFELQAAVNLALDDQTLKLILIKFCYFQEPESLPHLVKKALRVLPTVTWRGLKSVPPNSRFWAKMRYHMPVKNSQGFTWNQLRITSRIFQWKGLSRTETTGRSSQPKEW


Target: T1, IL-18 receptor on HEK-Blue IL18R …
Experiment: cell-based or functional assay

Row | EC50, HEK-Blue IL18R reporter (SEAP) [nM] | Binder
1 | 2.5 | modified IL-18 polypeptide SEQ ID NO: 241 (N-terminal 4xG, E6K, V11I, C38A, K53A, T63A, C76A, C127A) (ligand) GGGGYFGKLKSKLSIIRNLNDQVLFIDQGNRPLFEDMTDSDARDNAPRTIFIISMYADSQPRGMAVAISVKCEKISTLSAENKIISFKEMNPPDNIKDTKSDIIFFQRSVPGHDNKMQFESSSYEGYFLAAEKERDLFKLILKKEDELGDRSIMFTVQNED
2 | 1.68 | modified IL-18 polypeptide SEQ ID NO: 242 (N-terminal G, E6K, V11I, C38A, K53A, T63A, C76A, C127A) (ligand) GYFGKLKSKLSIIRNLNDQVLFIDQGNRPLFEDMTDSDARDNAPRTIFIISMYADSQPRGMAVAISVKCEKISTLSAENKIISFKEMNPPDNIKDTKSDIIFFQRSVPGHDNKMQFESSSYEGYFLAAEKERDLFKLILKKEDELGDRSIMFTVQNED
3 | 14 | modified IL-18 polypeptide SEQ ID NO: 244 (N-terminal G, E6K, V11I, C38A, M51G, K53A, T63A, C76A, C127A) (ligand) GYFGKLKSKLSIIRNLNDQVLFIDQGNRPLFEDMTDSDARDNAPRTIFIISGYADSQPRGMAVAISVKCEKISTLSAENKIISFKEMNPPDNIKDTKSDIIFFQRSVPGHDNKMQFESSSYEGYFLAAEKERDLFKLILKKEDELGDRSIMFTVQNED
4 | 2.02 | modified IL-18 polypeptide SEQ ID NO: 221 (V11I, C38A, K53A, C76A, D110A, C127A) (ligand) YFGKLESKLSIIRNLNDQVLFIDQGNRPLFEDMTDSDARDNAPRTIFIISMYADSQPRGMAVTISVKCEKISTLSAENKIISFKEMNPPDNIKDTKSDIIFFQRSVPGHANKMQFESSSYEGYFLAAEKERDLFKLILKKEDELGDRSIMFTVQNED
5 | 2.01 | modified IL-18 polypeptide SEQ ID NO: 222 (K8R, V11I, C38A, C76A, Q103E, C127A) (ligand) YFGKLESRLSIIRNLNDQVLFIDQGNRPLFEDMTDSDARDNAPRTIFIISMYKDSQPRGMAVTISVKCEKISTLSAENKIISFKEMNPPDNIKDTKSDIIFFERSVPGHDNKMQFESSSYEGYFLAAEKERDLFKLILKKEDELGDRSIMFTVQNED
6 | 1.91 | modified IL-18 polypeptide SEQ ID NO: 226 (V11I, C38A, S55R, C76A, C127A) (ligand) YFGKLESKLSIIRNLNDQVLFIDQGNRPLFEDMTDSDARDNAPRTIFIISMYKDRQPRGMAVTISVKCEKISTLSAENKIISFKEMNPPDNIKDTKSDIIFFQRSVPGHDNKMQFESSSYEGYFLAAEKERDLFKLILKKEDELGDRSIMFTVQNED
7 | 2.3 | modified IL-18 polypeptide SEQ ID NO: 223 (K8E, V11I, C38A, C76A, Q103R, C127A) (ligand) YFGKLESELSIIRNLNDQVLFIDQGNRPLFEDMTDSDARDNAPRTIFIISMYKDSQPRGMAVTISVKCEKISTLSAENKIISFKEMNPPDNIKDTKSDIIFFRRSVPGHDNKMQFESSSYEGYFLAAEKERDLFKLILKKEDELGDRSIMFTVQNED
8 | 0.4 | modified IL-18 polypeptide SEQ ID NO: 235 (E6K, K8E, V11I, C38A, K53A, T63A, C76A, Q103R, C127A) (ligand) YFGKLKSELSIIRNLNDQVLFIDQGNRPLFEDMTDSDARDNAPRTIFIISMYADSQPRGMAVAISVKCEKISTLSAENKIISFKEMNPPDNIKDTKSDIIFFRRSVPGHDNKMQFESSSYEGYFLAAEKERDLFKLILKKEDELGDRSIMFTVQNED
9 | 0.07 | modified IL-18 polypeptide SEQ ID NO: 232 (E6K, V11I, C38A, I49M, K53A, T63A, C76A, C127A) (ligand) YFGKLKSKLSIIRNLNDQVLFIDQGNRPLFEDMTDSDARDNAPRTIFIMSMYADSQPRGMAVAISVKCEKISTLSAENKIISFKEMNPPDNIKDTKSDIIFFQRSVPGHDNKMQFESSSYEGYFLAAEKERDLFKLILKKEDELGDRSIMFTVQNED
10 | 3.14 | modified IL-18 polypeptide SEQ ID NO: 225 (V11I, C38A, S55H, C76A, C127A) (ligand) YFGKLESKLSIIRNLNDQVLFIDQGNRPLFEDMTDSDARDNAPRTIFIISMYKDHQPRGMAVTISVKCEKISTLSAENKIISFKEMNPPDNIKDTKSDIIFFQRSVPGHDNKMQFESSSYEGYFLAAEKERDLFKLILKKEDELGDRSIMFTVQNED
11 | 0.04 | modified IL-18 polypeptide SEQ ID NO: 233 (E6K, V11I, C38A, I49R, K53A, T63A, C76A, C127A) (ligand) YFGKLKSKLSIIRNLNDQVLFIDQGNRPLFEDMTDSDARDNAPRTIFIRSMYADSQPRGMAVAISVKCEKISTLSAENKIISFKEMNPPDNIKDTKSDIIFFQRSVPGHDNKMQFESSSYEGYFLAAEKERDLFKLILKKEDELGDRSIMFTVQNED
12 | 0.1 | modified IL-18 polypeptide SEQ ID NO: 239 (E6K, V11I, C38A, M51G, K53A, T63A, C76A, C127A) (ligand) YFGKLKSKLSIIRNLNDQVLFIDQGNRPLFEDMTDSDARDNAPRTIFIISGYADSQPRGMAVAISVKCEKISTLSAENKIISFKEMNPPDNIKDTKSDIIFFQRSVPGHDNKMQFESSSYEGYFLAAEKERDLFKLILKKEDELGDRSIMFTVQNED
13 | 5.37 | modified IL-18 polypeptide SEQ ID NO: 228 (V11I, C38A, C76A, S105I, C127A) (ligand) YFGKLESKLSIIRNLNDQVLFIDQGNRPLFEDMTDSDARDNAPRTIFIISMYKDSQPRGMAVTISVKCEKISTLSAENKIISFKEMNPPDNIKDTKSDIIFFQRIVPGHDNKMQFESSSYEGYFLAAEKERDLFKLILKKEDELGDRSIMFTVQNED
14 | 0.04 | modified IL-18 polypeptide SEQ ID NO: 240 (E6R, V11I, C38A, K53A, T63A, C76A, C127A) (ligand) YFGKLRSKLSIIRNLNDQVLFIDQGNRPLFEDMTDSDARDNAPRTIFIISMYADSQPRGMAVAISVKCEKISTLSAENKIISFKEMNPPDNIKDTKSDIIFFQRSVPGHDNKMQFESSSYEGYFLAAEKERDLFKLILKKEDELGDRSIMFTVQNED
15 | 1.5 | modified IL-18 polypeptide SEQ ID NO: 224 (V11I, C38A, C76A, Q103K, C127A) (ligand) YFGKLESKLSIIRNLNDQVLFIDQGNRPLFEDMTDSDARDNAPRTIFIISMYKDSQPRGMAVTISVKCEKISTLSAENKIISFKEMNPPDNIKDTKSDIIFFKRSVPGHDNKMQFESSSYEGYFLAAEKERDLFKLILKKEDELGDRSIMFTVQNED
16 | 4.73 | modified IL-18 polypeptide SEQ ID NO: 227 (V11I, C38A, S55T, C76A, C127A) (ligand) YFGKLESKLSIIRNLNDQVLFIDQGNRPLFEDMTDSDARDNAPRTIFIISMYKDTQPRGMAVTISVKCEKISTLSAENKIISFKEMNPPDNIKDTKSDIIFFQRSVPGHDNKMQFESSSYEGYFLAAEKERDLFKLILKKEDELGDRSIMFTVQNED
17 | 0.08 | modified IL-18 polypeptide SEQ ID NO: 238 (E6K, V11I, C38A, K53A, T63A, C76A, C127A, V153Y) (ligand) YFGKLKSKLSIIRNLNDQVLFIDQGNRPLFEDMTDSDARDNAPRTIFIISMYADSQPRGMAVAISVKCEKISTLSAENKIISFKEMNPPDNIKDTKSDIIFFQRSVPGHDNKMQFESSSYEGYFLAAEKERDLFKLILKKEDELGDRSIMFTYQNED
18 | 0.29 | modified IL-18 polypeptide SEQ ID NO: 230 (K8L, E6K, V11I, C38A, K53A, T63A, C76A, C127A) (ligand) YFGKLKSLLSIIRNLNDQVLFIDQGNRPLFEDMTDSDARDNAPRTIFIISMYADSQPRGMAVAISVKCEKISTLSAENKIISFKEMNPPDNIKDTKSDIIFFQRSVPGHDNKMQFESSSYEGYFLAAEKERDLFKLILKKEDELGDRSIMFTVQNED
19 | 0.1 | modified IL-18 polypeptide SEQ ID NO: 237 (E6K, V11I, C38A, K53A, T63A, C76A, C127A, V153E) (ligand) YFGKLKSKLSIIRNLNDQVLFIDQGNRPLFEDMTDSDARDNAPRTIFIISMYADSQPRGMAVAISVKCEKISTLSAENKIISFKEMNPPDNIKDTKSDIIFFQRSVPGHDNKMQFESSSYEGYFLAAEKERDLFKLILKKEDELGDRSIMFTEQNED
20 | 7.73 | modified IL-18 polypeptide SEQ ID NO: 229 (V11I, C38A, C76A, S105K, C127A) (ligand) YFGKLESKLSIIRNLNDQVLFIDQGNRPLFEDMTDSDARDNAPRTIFIISMYKDSQPRGMAVTISVKCEKISTLSAENKIISFKEMNPPDNIKDTKSDIIFFQRKVPGHDNKMQFESSSYEGYFLAAEKERDLFKLILKKEDELGDRSIMFTVQNED
21 | 0.26 | modified IL-18 polypeptide SEQ ID NO: 234 (E6K, V11I, C38A, K53A, T63A, C76A, Q103R, C127A) (ligand) YFGKLKSKLSIIRNLNDQVLFIDQGNRPLFEDMTDSDARDNAPRTIFIISMYADSQPRGMAVAISVKCEKISTLSAENKIISFKEMNPPDNIKDTKSDIIFFRRSVPGHDNKMQFESSSYEGYFLAAEKERDLFKLILKKEDELGDRSIMFTVQNED
22 | 0.02 | modified IL-18 polypeptide SEQ ID NO: 243 (Y1M, E6K, V11I, C38A, K53A, T63A, C76A, C127A) (ligand) MFGKLKSKLSIIRNLNDQVLFIDQGNRPLFEDMTDSDARDNAPRTIFIISMYADSQPRGMAVAISVKCEKISTLSAENKIISFKEMNPPDNIKDTKSDIIFFQRSVPGHDNKMQFESSSYEGYFLAAEKERDLFKLILKKEDELGDRSIMFTVQNED

Source: patent US20230357342A1 (published 2023)
